In US11912789 (INTERK PEPTIDE THERAPEUTICS, dated 2024):
Read-outs that look alike come from different tables or passages of the source. No end group written: not given here. 2Adod = 2-amino-dodecanoic acid; 2Adec = 2-amino-decanoic acid; 12Ado = NCCCCCCCCCCCC(=O)O

What was measured:
Assay in all cases: cell-based or functional assay
[1] = biological target: T1, Lymphocyte-specific protein tyrosine kinase (Lck), enzyme in cell-free kinase assay (human, UniProt P06239 1-509, limits assumed)
[2] = biological target: T1, Lymphocyte-specific protein tyrosine …; remark: listed apart in the source
Hck = Hck (UniProt P08631 251-518, limits assumed)
Chain of Hck (P08631 251-518 limits assumed): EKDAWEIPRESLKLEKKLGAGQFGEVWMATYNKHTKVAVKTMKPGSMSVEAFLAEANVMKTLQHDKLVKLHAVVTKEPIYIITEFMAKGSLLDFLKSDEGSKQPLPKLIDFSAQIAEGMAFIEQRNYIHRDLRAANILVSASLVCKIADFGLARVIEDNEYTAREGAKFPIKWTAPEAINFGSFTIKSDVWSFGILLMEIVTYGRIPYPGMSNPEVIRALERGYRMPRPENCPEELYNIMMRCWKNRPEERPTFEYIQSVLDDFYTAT

Lyn = Lyn (UniProt P07948 1-512, limits assumed)
Chain of Lyn (P07948 whole entry): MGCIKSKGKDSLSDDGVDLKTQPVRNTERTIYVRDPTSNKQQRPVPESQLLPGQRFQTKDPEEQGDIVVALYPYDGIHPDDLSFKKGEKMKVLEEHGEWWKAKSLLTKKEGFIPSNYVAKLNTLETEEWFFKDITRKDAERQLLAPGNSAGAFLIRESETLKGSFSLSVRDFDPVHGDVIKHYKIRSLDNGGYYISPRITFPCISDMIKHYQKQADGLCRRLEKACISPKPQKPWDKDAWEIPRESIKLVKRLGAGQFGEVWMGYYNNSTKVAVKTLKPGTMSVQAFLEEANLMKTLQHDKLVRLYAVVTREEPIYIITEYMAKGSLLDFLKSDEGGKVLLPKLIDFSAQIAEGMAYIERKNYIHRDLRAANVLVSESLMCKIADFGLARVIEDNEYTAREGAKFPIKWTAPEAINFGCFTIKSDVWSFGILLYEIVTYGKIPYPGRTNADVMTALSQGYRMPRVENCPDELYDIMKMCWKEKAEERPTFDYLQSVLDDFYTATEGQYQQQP

Blk = Blk (UniProt P51451 1-505, limits assumed)
Chain of Blk (P51451 whole entry): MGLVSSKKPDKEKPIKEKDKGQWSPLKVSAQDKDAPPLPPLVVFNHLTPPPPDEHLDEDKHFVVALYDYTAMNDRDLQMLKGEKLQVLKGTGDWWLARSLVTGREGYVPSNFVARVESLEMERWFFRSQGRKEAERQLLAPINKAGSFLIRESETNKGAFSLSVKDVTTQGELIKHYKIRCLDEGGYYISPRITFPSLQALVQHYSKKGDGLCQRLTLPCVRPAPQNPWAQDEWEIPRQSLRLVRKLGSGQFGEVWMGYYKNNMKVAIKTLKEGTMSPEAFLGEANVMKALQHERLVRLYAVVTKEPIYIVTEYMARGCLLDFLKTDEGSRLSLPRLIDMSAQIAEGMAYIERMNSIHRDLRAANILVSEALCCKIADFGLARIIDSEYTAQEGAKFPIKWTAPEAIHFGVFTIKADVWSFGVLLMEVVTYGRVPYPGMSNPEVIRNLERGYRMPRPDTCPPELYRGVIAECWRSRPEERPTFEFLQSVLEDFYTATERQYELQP

Fyn = Fyn (UniProt P06241 1-537, limits assumed)
Chain of Fyn (P06241 whole entry): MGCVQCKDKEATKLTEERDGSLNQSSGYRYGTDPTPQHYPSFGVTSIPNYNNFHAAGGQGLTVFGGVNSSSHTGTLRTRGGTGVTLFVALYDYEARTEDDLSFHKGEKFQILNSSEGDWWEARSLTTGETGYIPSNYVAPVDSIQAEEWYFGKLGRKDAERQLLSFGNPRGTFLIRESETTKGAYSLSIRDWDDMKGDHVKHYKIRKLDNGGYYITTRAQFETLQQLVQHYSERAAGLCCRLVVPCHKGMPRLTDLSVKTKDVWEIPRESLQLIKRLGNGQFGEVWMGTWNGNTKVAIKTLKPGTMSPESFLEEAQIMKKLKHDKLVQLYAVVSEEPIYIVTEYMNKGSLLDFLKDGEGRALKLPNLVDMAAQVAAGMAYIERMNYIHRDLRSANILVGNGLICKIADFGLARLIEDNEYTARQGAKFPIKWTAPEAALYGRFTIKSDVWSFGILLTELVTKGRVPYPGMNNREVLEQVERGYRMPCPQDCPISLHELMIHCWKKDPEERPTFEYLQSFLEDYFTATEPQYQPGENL

Yes = Yes (UniProt P07947 1-543, limits assumed)
Chain of Yes (P07947 whole entry): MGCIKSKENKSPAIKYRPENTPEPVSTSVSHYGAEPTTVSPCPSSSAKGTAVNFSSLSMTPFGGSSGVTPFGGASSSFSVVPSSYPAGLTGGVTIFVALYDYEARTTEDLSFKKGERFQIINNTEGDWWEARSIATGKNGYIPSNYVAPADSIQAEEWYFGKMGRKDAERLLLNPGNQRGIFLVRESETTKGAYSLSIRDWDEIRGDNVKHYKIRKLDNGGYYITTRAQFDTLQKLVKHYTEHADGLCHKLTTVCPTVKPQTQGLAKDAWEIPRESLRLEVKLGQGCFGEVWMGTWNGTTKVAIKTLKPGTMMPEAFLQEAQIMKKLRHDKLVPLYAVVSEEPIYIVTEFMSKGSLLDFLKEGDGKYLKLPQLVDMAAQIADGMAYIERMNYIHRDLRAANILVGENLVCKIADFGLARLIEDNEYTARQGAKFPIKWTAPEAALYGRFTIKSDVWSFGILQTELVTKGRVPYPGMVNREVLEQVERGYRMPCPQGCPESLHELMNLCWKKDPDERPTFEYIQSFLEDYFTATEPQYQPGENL

[3] = biological target: T1, Lymphocyte-specific protein tyrosine …; remark: listed apart in the source
cSRC = cSRC (UniProt P12931 1-536, limits assumed)
Fgr = Fgr (UniProt P09769 1-529, limits assumed)
[4] = biological target: T1, Lymphocyte-specific protein tyrosine …; remark: listed apart in the source

T1 sequence (P06239 whole entry): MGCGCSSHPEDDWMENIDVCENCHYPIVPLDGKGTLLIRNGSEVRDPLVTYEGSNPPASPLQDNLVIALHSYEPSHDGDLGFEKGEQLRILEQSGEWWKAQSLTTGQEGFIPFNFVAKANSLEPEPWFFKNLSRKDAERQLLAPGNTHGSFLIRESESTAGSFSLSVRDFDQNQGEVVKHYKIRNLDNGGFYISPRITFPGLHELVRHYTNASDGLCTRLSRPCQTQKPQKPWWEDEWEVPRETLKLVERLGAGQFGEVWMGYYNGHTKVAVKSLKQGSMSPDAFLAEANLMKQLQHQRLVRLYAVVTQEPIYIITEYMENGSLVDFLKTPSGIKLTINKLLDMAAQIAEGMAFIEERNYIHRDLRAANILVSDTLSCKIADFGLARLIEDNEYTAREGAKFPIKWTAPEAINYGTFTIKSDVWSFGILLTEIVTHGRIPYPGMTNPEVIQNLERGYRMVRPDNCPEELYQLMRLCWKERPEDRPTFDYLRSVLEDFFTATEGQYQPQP

| Binder | Lck Activation above control, 1 µM [1] | Lck Activation above control, 10 µM [1] | Lck Activation above control, 30 µM [1] | further results |
| --- | --- | --- | --- | --- |
| RVKVKVVVV | 518% | 501% | 363% | – |
| RYLPNKAKS | 0% | 0% | 5% | – |
| SKAKNPLYR | 0% | 0% | 0% | – |
| RSKAKNPLYR-{12Ado-12Ado-12Ado-12Ado-NH2} [RSKAKNPLYR-(12-Adod)4-NH2] | – | – | – | Lck Activation above control, 1 µM [2]: 96% |
| RSAAKNPLY | 0% | 0% | 0% | – |
| RSKAKNPLYR-{2Adec-2Adec-2Adec-2Adec-NH2} [RSKAKNPLYR-(2-Adec)4-NH2] | – | – | – | Lck Activation above control, 1 µM [2]: 127% |
| RSKAKNPLY | 0% | 186% | 407% | Hck activity relative to control, peptide at 10 µM (Hck): 0%; Lyn activity relative to control, peptide at 10 µM (Lyn): 0%; Blk activity relative to control, peptide at 10 µM (Blk): 0%; Fyn activity relative to control, peptide at 10 µM (Fyn): 0%; Yes activity relative to control, peptide at 10 µM (Yes): 0%; Lck activity relative to control, peptide at 10 µM [3]: 186%; cSRC activity relative to control, peptide at 10 µM (cSRC): 0%; Fgr activity relative to control, peptide at 10 µM (Fgr): 0% |
| KEKLKNPLF | 0% | 0% | 14% | – |
| RSKAANPLY | 0% | 0% | 0% | – |
| RSKAKNPLYR | 0% | 0% | 0% | Hck activity relative to control, peptide at 10 µM (Hck): 0%; Lyn activity relative to control, peptide at 10 µM (Lyn): 0%; Blk activity relative to control, peptide at 10 µM (Blk): 0%; Fyn activity relative to control, peptide at 10 µM (Fyn): 0%; Yes activity relative to control, peptide at 10 µM (Yes): 0%; Lck activity relative to control, peptide at 10 µM [3]: 0%; cSRC activity relative to control, peptide at 10 µM (cSRC): 0%; Fgr activity relative to control, peptide at 10 µM (Fgr): 0% |
| DSEAENPLYD-{2Adod-2Adod-2Adod-2Adod-NH2} [DSEAENPLYD-(2Adod)4-NH2] | – | – | – | Lck Activation above control, 1 µM [2]: 0% |
| ASKAKNPLY | 0% | 0% | 0% | – |
| RSKAKNPLYR-{2Adod-2Adod-2Adod-2Adod-NH2} [RSKAKNPLYR-(2Adod)4-NH2] | – | – | – | Lck Activation above control, 1 µM [2]: 499% |
| RVKVKVVVVR | 13% | 183% | – | – |
| RSKAKNPLYR-{2Adod-2Adod-2Adod-2Adod-OH} [RSKAKNPLYR-(2Adod)4-OH] | – | – | – | level of Lck activation relative to the amidated compound …-(2Adod)4-NH2 [4]: ~50% |
| RSRARNPLY | 0% | 0% | 0% | – |
